Test results taken from US20240343820A1.
Numbering of substitutions follows the chain as printed.

B1: 23E1 (antibody, V domains shown)
VH: EVQLQQSGPVLVKPGPSVKISCKASGFTFTDYYMHWVKQSHGKSLEWIGLVYPYNGGTSYNQKFKGKATLTVDTSSSTAYMELNSLTSEDSAVYYCARRGQRVWYFDVWGTGTTVTVSS
VL: DIQMTQSPSSLSASLGGKVTITCKASQDINKYIAWYQHKPGKGPRLLIHYTSTLQPGIPSRFSGSGSGRDYSFSISNLEPEDIATYYCLQYDNLYTFGGGTKLEIK
B2: 25B2 (antibody, V domains shown)
VH: QIQLVQSGPELKKPGETVKISCKASGYTFTTYGMSWVKQAPGKGLKWMGWINTYSGVPTYADDFKGRFAFSLETSASTAYLQINNLKNEDTATYFCARTYYGNYFDYWGQGTTLTVSS
VL: B1 VL
B3: 24C7 (antibody, V domains shown)
VH: QVQLQQSGPELVKPGASVKISCKASGYSFTSYYIHWVKQRPGQGLEWIGWIYPGSGNTKYNEKFKGKATLTADTSSSTAYMQLSSLTSEDSAVYYCARCVLLDYFDYWGQGTTLTVSS
VL: DIQMTQSPSSLSASLGERVSLTCRASQEISGYLSWLQQKPDGTIKRLIYAASTLDSGVPKRFSGSRSGSDYSLTISSLESEDFADYYCLQYASYPYTFGGGTKLEIK
B4: 25F10 (antibody, V domains shown)
VH: QVHLQQSGPELVKPGASVKISCKASGYSFTSYYIHWVKQRPGQGLEWIGWIYPRSGNTNYNEKFKDKATLAADTSSSAAYMQLSSLTSEDSAVYYCGRSDFYYGSDYWGQGTTLTVSS
VL: B3 VL with S34G, K60R, I75F, Y96W
B5: 23C11 (antibody, V domains shown)
VH: QVQLQQPGAELVRPGSSVKLSCKASGYTFTSYWMHWVKQRPIQGLEWIGNIDPSDSETHYNQKFKDKATLTVDKSSSTAYMQLSSLTSEDSAVYYCARAGRVFYYAMDYWGQGTSVTVSS
VL: DIQMTQTTSSLSASLGDRVTISCRASQDISNYLNWYQQKPDGTVKLLIYYTSRLHSGVPSRFSGSGSGTDYSLTISNLEQEDIATYFCQQGNTLYTFGGGTKLEIK
B6: 29F8 (antibody, V domains shown)
VH: B2 VH with T91S, T99Y, N103S, Y104N, F105Y
VL: DIQMTQSPASLSASVGETVTITCRASENIYSYLAWYQQKQGKSPQLLVNNAKTLAEGVPSRFSGSGSGTQFSLKINSLQPEDFGSYYCQHHYGSPPTFGSGTKLEIK
B7: 29F1 (antibody, V domains shown)
VH: B2 VH with T99F, N103S, Y104S
VL: B6 VL with N49Y, S94T, P96L, S100A, I106L
B8: 24C12 (antibody, V domains shown)
VH: QVQLQQSGAELMKPGASVKLSCKATGHTFTGYWIEWVKQRPGHGLEWIGEILPGSGSTNYNEKFKGKATFTADTSSNTAYMQLSSLTTEDSAIYYCAREGFAYWGQGTLVTVSA
VL: DIVMTQSHKFMSTSVGDRVSITCKASQDVGIAVAWYQQKPGQSPKLLIYWASTRHTGVPDRFTGSGSGTDFTLTISNVQSEDLADYFCQQYSSYPYTFGGGTKLEIK
B9: 22H5 (antibody, V domains shown)
VH: DVQLQESGPGMVKPSQSLSLTCTVTGYSITSGYDWHWIRHFPGNKLEWMGYISYSGSTNYNPSLKSRISITHDTSKNHFFLKLNSVTTEDTATYYCAREGYSNYFDSWGQGTTLTVSS
VL: SIVMTQTPKFLLVSAGDRVTITCKASQSVSNDVAWYQQKPGQSPKLLIFYASNRYTGVPDRFTGSGYGTDFTFTISTVQAEDLAVYFCQQDYSSPLAFGAGTKLELK

Biological target: anti-CD20 scFv-14
Experiment: Octet (BLI) equilibrium binding, hybridoma supernatant; antigen format not stated

| Binder | Kd |
| --- | --- |
| B1 | 3.28 nM |
| B2 | 0.382 nM |
| B3 | 3.9 nM |
| B4 | 0.00408 nM |
| B5 | 3.72 nM |
| B6 | 0.00131 nM |
| B7 | 0.0534 nM |
| B8 | 0.00138 nM |
| B9 | 0.633 nM |
